Our source for the binding result and Kd values is patent EP4703387A1 (University of Tsukuba, dated 2026).

Assay [1] addresses T1, human CD300A-Q (human, UniProt Q9UGN4 18-299).
T1 construct: whole, on cells; also called huCD300A-Q; human CD300A^Gln111
T1 sequence (looked up): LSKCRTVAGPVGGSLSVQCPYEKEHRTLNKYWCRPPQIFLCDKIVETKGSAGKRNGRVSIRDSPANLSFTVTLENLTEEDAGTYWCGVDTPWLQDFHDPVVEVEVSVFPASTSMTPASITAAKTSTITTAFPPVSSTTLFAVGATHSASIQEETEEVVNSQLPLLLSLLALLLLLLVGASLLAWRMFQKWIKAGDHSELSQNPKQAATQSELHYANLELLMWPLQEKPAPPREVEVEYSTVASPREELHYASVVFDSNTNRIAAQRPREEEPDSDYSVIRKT
Nature of the assay: flow cytometry analysis using CD300A-Q. Background: Flow cytometry measures light scatter and fluorescence of single cells or particles in a stream.

The target in assay [2] is T2, human CD300C (human, UniProt Q08708 21-224).
T2 construct: whole, on cells; also called huCD300C; BW/huCD300C
T2 sequence (looked up): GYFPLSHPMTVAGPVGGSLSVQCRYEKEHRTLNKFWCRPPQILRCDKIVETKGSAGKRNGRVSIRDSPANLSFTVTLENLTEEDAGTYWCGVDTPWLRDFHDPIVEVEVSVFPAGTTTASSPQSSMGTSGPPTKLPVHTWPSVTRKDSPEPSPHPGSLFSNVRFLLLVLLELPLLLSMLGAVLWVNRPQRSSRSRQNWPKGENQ
Nature of the assay: flow cytometry on BW/huCD300C cells, biotinylated antibody with SA-APC.

The target of assay [3] is T3, human CD300A-R (as used in the BLI measurement) (human, UniProt Q9UGN4 18-180, limits assumed).
T3 sequence (looked up): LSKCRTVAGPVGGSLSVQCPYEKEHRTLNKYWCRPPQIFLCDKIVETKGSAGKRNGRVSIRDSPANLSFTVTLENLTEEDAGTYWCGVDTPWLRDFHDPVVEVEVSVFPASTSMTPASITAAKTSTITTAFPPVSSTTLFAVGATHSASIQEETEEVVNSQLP
Nature of the assay: biolayer interferometry (BLI); format not described. For orientation: BLI is a label-free optical method that tracks binding on a fibre tip over time.

For assay [4], the target named is T1, human CD300A-Q. Put plainly: assay not named for Hu NO. 1T on CD300A-Q (CD300A-Q flow cytometry is listed for Hu NO. 1R, 1U and 1W).
Assay [5] deals with T1, human CD300A-Q. Nature of the assay: assay not named for Hu NO. 1V on CD300A-Q (CD300A-Q flow cytometry is listed for Hu NO. 1R, 1U and 1W).
In assay [6] the target is T2, human CD300C. Put plainly: flow cytometry on BW/huCD300C cells, purified antibody.
Assay [7] has as its target T1, human CD300A-Q. Nature of the assay: flow cytometry on BW/huCD300A-Q cells, purified antibody, 0.5 µg per 1 × 10^5 cells.
Assay [8] has as its target T1, human CD300A-Q. Nature of the assay: assay not given; reference antibody in the CD300A-Q flow cytometry comparison of paragraph 258.

Where a chain is given by its changes, count along the chain named. Numbers in names are those of the source.

B1: HuNO.1R (antibody, V domains shown)
VH: EVQLVESGGGLVQPGGSLRLSCAASGFTFSSYGMSWVRQAPGKRLEWVATISSGGSYTYYPDSVKGRFTISRDNAKNSLYLQMNSLRAEDTAVYYCARHGDYGYPWFAYWGQGTMVTVSS
VL: QIQMTQSPSSLSASVGDRVTMTCTASSSVSSSYLHWYQQKPGKAPKLWIYSTSNLASGVPSRFSGSGSGTDYTLTISSLQPEDFATYYCHQYHRSHTFGGGTKVEIK
notes: Transient HEK293 supernatant; Human IgG/kappa constant regions
Take B1: the binding result in the assay with human CD300A-Q [1] was “binds”.

B2: HuNO.1U (antibody, human IgG1, kappa, L234A L235A, V domains shown)
VH: B1 VH with G42D
VL: QIQMTQSPSSLSASVGDRVTMTCTASSSVSSSYLHWYQQKPGKAPKLWIYSTSNLASGVPSRFSGSGSGTDYTLTISSLQPEDFATYYCHQYHRSHTFGGGTKVEIKR
notes: VH = Hu NO; also called Humanized NO; 1 antibody
Regarding B2, the binding result in the assay with human CD300C [2] is “no binding (tested: 0.5 µg antibody per 1 × 10^5 cells)”. The molecule further yielded a Kd in assay [3] of 22 nM.

B3: HuNO.1T (antibody, V domains shown)
VH: B1 VH with R19K
VL: B1 VL
notes: as for B1
Consider B3, for which the binding result with human CD300A-Q [4] is recorded as “binds”.

B4: HuNO.1W (antibody, V domains shown)
VH: B1 VH with G10D
VL: B1 VL
notes: as for B1
B4: the binding result with human CD300A-Q [1] is on record as “binds”.

B5: HuNO.1V (antibody, V domains shown)
VH: B1 VH with V93M
VL: B1 VL
notes: Position 89 may be a Kabat number rather than a count on the entry; Transient HEK293 supernatant; Human IgG/kappa constant regions
As for B5, the binding result with human CD300A-Q [5] is given as “binds”.

B6: Antibody NO. 3 (antibody, V domains shown)
VH: QIQLVQSGPELKKPGETVKISCKASGYTFTHYGLNWVKQAPGKGLQWMGWIHTYTGESTYADDFKGRSAFSLETSASTAYLQINNLKNEDTATYFCARGGKDALDYWGQGTSVTVSS
VL: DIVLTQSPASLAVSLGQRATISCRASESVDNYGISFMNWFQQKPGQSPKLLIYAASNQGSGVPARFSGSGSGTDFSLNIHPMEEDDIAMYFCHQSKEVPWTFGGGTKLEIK
notes: Mouse monoclonal antibody from a hybridoma
On to B6, for which the results for the binding result with human CD300C [6] and with human CD300A-Q [7] were “no binding (tested: 0.5 µg antibody per 1 × 10^5 cells)” and “binds”, respectively.

B7: Antibody NO. 1 (antibody, V domains shown)
VH: EVQLVESGGDLVKPGGSLKLSCAASGFTFSSYGMSWVRQTPDKRLEWVATISSGGSYTYYPDSVKGRFTISRDNAKNTLYLQMSSLKSEDTAMYYCARHGDYGYPWFAYWGQGTLVTVSA
VL: QIVLTQSPAIMSASLGERVTMTCTASSSVSSSYLHWYQQKPGSSPKLWIYSTSNLASGVPARFSGSGSGTSYSLTISSMEAEDAATYYCHQYHRSHTFGGGTKLEIK
notes: Mouse monoclonal antibody from a hybridoma, purified from ascites; also called mouse Antibody NO
For the molecule B7, the binding result was “no binding (tested: 0.5 µg antibody per 1 × 10^5 cells)” with human CD300C [6] and “binds” in the assay with human CD300A-Q [7].

B8: chimeric NO. 1 IgG1/kappa antibody (Ch NO. 1) (antibody, V domains shown)
VH: B7 VH
VL: B7 VL
notes: Mouse NO; 1 VH and VL on human γ-1 and κ constant regions; The γ-1 chain carries L234A/L235A; also called mouse-human chimeric NO; 1 IgG1/kappa antibody
With B8, the binding result with human CD300A-Q [8] was “binds”.

What is called Kd is the concentration at which binding is half-saturated. A lower Kd goes with a tighter complex.
